Molecular target: antithrombin III (plasma purified human AT-III), used as the AT-III/unfractionated heparin complex (human), P01008
Assay: K0.5: AT-III/UFH titrated against FIXa, 10 s, residual cleavage of Mesyl-D-CHG-Gly-Arg-AMC
Details: remark: other sources report otherwise

IC50: 5.88 µM
B1: FIXa-R318Y/R338E/R403E/E410N, P00740 47-191; P00740 227-461 (enzyme)
chain 1: YNSGKLEEFVQGNLERECMEEKCSFEEAREVFENTERTTEFWKQYVDGDQCESNPCLNGGSCKDDINSYECWCPFGFEGKNCELDVTCNIKNGRCEQFCKNSADNKVVCSCTEGYRLAENQKSCEPAVPFPCGRVSVSQTSKLTR
chain 2: VVGGEDAKPGQFPWQVVLNGKVDAFCGGSIVNEKWIVTAAHCVETGVKITVVAGEHNIEETEHTEQKRNVIRIIPHHNYNAAINKYNHDIALLELDEPLVLNSYVTPICIADKEYTNIFLKFGSGYVSGWGRVFHKGYSALVLQYLRVPLVDRATCLESTKFTIYNNMFCAGFHEGGRDSCQGDSGGPHVTEVEGTSFLTGIISWGEECAMKGKYGIYTKVSEYVNWIKNKTKLT

Source: patent US20210238260A1
